Legend:
MRL/FAS^lpr mice [1] = assay: Spleen weight in an in vivo model of systemic lupus erythematosus; details: sGal-9 2 mg/kg SC once per week, 9 weeks, FIG. 5
Excerpt: Additionally, after the completion of the experiment, the experimental animals from <1-1> were sacrificed, and the spleens were extracted for weight measurement.

MRL/FAS^lpr mice [2] = assay: Clinical indicators (skin, lymphadenopathy, proteinuria scores) in an in vivo model of systemic lupus erythematosus; details: 9 weeks; for reduction in skin lesions compared to positive control (Mycophenolate) / skin lesions (skin score) compared to negative control (Vehicle): FIG. 2; for inhibitory effect on lymphadenopathy compared to positive control (Mycophenolate) / lymphadenopathy score compared to negative control (Vehicle): FIG. 3; for proteinuria compared to negative control (Vehicle): FIG. 4
Excerpt: Specifically, the occurrence and severity of lupus were regularly observed from group allocation to the end of the experiment in the experimental animals from <1-1> and evaluated according to the criteria shown in [Table 2].

MRL/FAS^lpr mice [3] = assay: IgG immunofluorescence staining of renal tissue; type: in vivo; details: 9 weeks, FIG. 7
Experimental: Additionally, the collected kidney tissues were frozen, sectioned at a thickness of 4 μm, and fixed in cold acetone for 5 minutes, followed by two washes with phosphate-buffered saline (PBS) for 5 minutes each. To eliminate non-specific reactions, blocking was performed for 30 minutes using a PBS solution containing 1% bovine serum albumin and 0.05% Tween-20. The sections were then incubated at room temperature for 1 hour with FITC-conjugated goat anti-mouse IgG antibody (1:200, AP308F, Merck Millipore). After three washes with PBS for 5 minutes each, nuclear staining was performed using DAPI, and the sections were covered with a cover glass using mounting medium. The samples were then examined using a confocal laser scanning microscope (C2 Plus, Nikon). […] Furthermore, it was confirmed that the glomerular lesion scores decreased in the positive control group (Mycophenolate) and the sGal-9 treatment groups (sGal-9 2 mg/kg and sGal-9 4 mg/kg) compared to the negative control group (Vehicle).

MRL/FAS^lpr mice [4] = assay: Histomorphological evaluation of renal tissue (H&E staining); type: in vivo; details: 9 weeks, FIG. 6; for inflammatory cell infiltration within the glomeruli: H&E
Excerpt: Specifically, after the completion of the experiment, the experimental animals of <1-1> were sacrificed, and renal tissues were collected. The collected renal tissues were fixed and dehydrated in 10% formaldehyde and subsequently embedded in paraffin. The fixed renal tissues were sectioned to a thickness of 2 μm and stained with hematoxylin and eosin (H&E). The sectioned tissues were covered with a coverslip and observed under an optical microscope at 400× magnification. Four regions were imaged for each tissue, and two or more researchers assigned scores based on the evaluation items and criteria for histomorphological assessment shown in [Table 3]. The average of the researchers' scores was determined as the scoring value, and the mean of the scoring values for the four regions was calculated as the final score for each tissue.

anti-dsDNA antibodies = assay: Plasma anti-dsDNA antibody levels (ELISA) in an in vivo model of systemic lupus erythematosus; parameters: species or system mice; details: 9 weeks, FIG. 8
Experimental: Anti-dsDNA antibodies are a type of antinuclear antibody (ANA) that target intracellular nuclear components and are present at high titers in systemic lupus erythematosus (SLE). These antibodies are associated with the persistent progression of kidney inflammation and damage.
Specifically, after the completion of the experiment, cardiac blood collection was performed on the experimental animals from <1-1>. The collected blood was allowed to coagulate for 30 minutes using a capillary blood collection tube (Cat. 365967, BD) and then centrifuged at 6,000×g for 10 minutes to obtain plasma. The obtained plasma was diluted at a ratio of 1:2,500, and the concentration of anti-dsDNA antibodies was measured using a Mouse Anti-dsDNA IgG Antibody ELISA Kit (Cat. 3031, Chondrex) according to the manufacturer's protocol.

[5] = sGal-9 2 mg/kg SC once per week
[6] = sGal-9 4 mg/kg SC once per week

B1: sGal-9: recombinant stabilized galectin-9 protein of Sequence No. 1: linker entirely deleted, CCRD positions 1 to 10 deleted, alanine 13 substituted with proline (protein)
chain: MAFSGSQAPYLSPAVPFSGTIQGGLQDGLQITVNGTVLSSSGTRFAVNFQTGFSGNDIAFHFNPRFEDGGYVVCNTRQNGSWGPEERKTHMPFQKGMPFDLCFLVQSSDFKVMVNGILFVQYFHRVPFHRVDTISVNGSVQLSYISFQHPPYPMPFITTILGGLYPSKSILLSGTVLPSAQRFHINLCSGNHIAFHLNPRFDENAVVRNTQIDNSWGSEERSLPRKMPFVRGQSFSVWILCEAHCLKVAVDGQHLFEYYHRLRNLPTINRLEVGGDIQLTHVQT
modifications: sGal-9
spleen weight compared to negative control (Vehicle) (MRL/FAS^lpr mice [1]): decreased
reduction in skin lesions compared to positive control (Mycophenolate) (MRL/FAS^lpr mice [2]; [5]): more pronounced
skin lesions (skin score) compared to negative control (Vehicle) (MRL/FAS^lpr mice [2]; [5]): reduced
inhibitory effect on lymphadenopathy compared to positive control (Mycophenolate) (MRL/FAS^lpr mice [2]; [5]): more pronounced
lymphadenopathy score compared to negative control (Vehicle) (MRL/FAS^lpr mice [2]; [5]): decreased
proteinuria compared to negative control (Vehicle) (MRL/FAS^lpr mice [2]; [5]): decreased
reduction in skin lesions compared to positive control (Mycophenolate) (MRL/FAS^lpr mice [2]; [6]): more pronounced
skin lesions (skin score) compared to negative control (Vehicle) (MRL/FAS^lpr mice [2]; [6]): reduced
inhibitory effect on lymphadenopathy compared to positive control (Mycophenolate) (MRL/FAS^lpr mice [2]; [6]): more pronounced
lymphadenopathy score compared to negative control (Vehicle) (MRL/FAS^lpr mice [2]; [6]): decreased
proteinuria compared to negative control (Vehicle) (MRL/FAS^lpr mice [2]; [6]): decreased
IgG deposition in the kidney compared to negative control (Vehicle) (MRL/FAS^lpr mice [3]; [5]): decreased
IgG deposition in the kidney compared to negative control (Vehicle) (MRL/FAS^lpr mice [3]; [6]): decreased
glomerular lesion scores compared to negative control (Vehicle) (MRL/FAS^lpr mice [4]; [5]): decreased
inflammatory cell infiltration within the glomeruli (MRL/FAS^lpr mice [4]; [5]): reduction
glomerular lesion scores compared to negative control (Vehicle) (MRL/FAS^lpr mice [4]; [6]): decreased
inflammatory cell infiltration within the glomeruli (MRL/FAS^lpr mice [4]; [6]): reduction
concentration of anti-dsDNA antibodies in plasma compared to negative control (Vehicle) (anti-dsDNA antibodies; [5]): decreased
concentration of anti-dsDNA antibodies in plasma compared to negative control (Vehicle) (anti-dsDNA antibodies; [6]): decreased
reduction in anti-dsDNA antibody levels compared to positive control (Mycophenolate) (anti-dsDNA antibodies; [6]): superior reduction

— patent US20250222068A1, “COMPOSITION FOR PREVENTING OR TREATING LUPUS COMPRISING RECOMBINANT STABILIZED GALECTIN-9 PROTEIN” (GBIOLOGICS INC., priority 2022, published 2025)
